This is an account of results in US20100184047A1, “SCREENING AND THERAPEUTIC METHOD FOR NSCLC TARGETING THE CDCA8-AURKB COMPLEX” (ONCOTHERAPY SCIENCE, INC., priority 2007, published 2010).

Residues, ends and D or L forms follow the SMILES beside them.

The test system of one data set is MRC5 cells. In words: MTT assay with 11R-peptides on normal lung fibroblasts. It counts as cell-based. To be noted: MRC5, normal human lung fibroblast derived; CDCA8 and AURKB hardly detectable. In general terms: Formazan colour is commonly taken as a measure of viable cells.
A further data set deals with CCD19-Lu cells. In words: Cell viability with 11R-peptides on normal lung fibroblasts. The data set is classed as cell-based. To be noted: normal human lung fibroblast derived, CDCA8 and AURKB hardly detectable.
The subject of the next data set is BEAS-2B cells. Description: MTT assay with 11R-peptides on bronchial epithelia derived cells. It counts as cell-based. To be noted: human bronchial epithelia derived, CDCA8 and AURKB hardly detectable. The protocol:
LC319, SBC-5 cells and BEAS-2B cells were incubated with the 11R-peptides at the concentration of 2.5 micromoles, 5 micromoles, and 7.5 micromoles for seven days. The medium was exchanged at every 48 hours at the appropriate concentrations of each peptide and the viability of cells was evaluated by MTT assay at 7 days after the treatment. To confirm the transduction efficiency of the peptides, the 11R-CDCA8261-280 and its control peptides labeled with fluorescein isothiocyanate (FITC) at N-terminus were synthesized. Transduction of the peptides (2.5-7.5 micromoles) was monitored by fluorescence microscopic observation after a 3-hour incubation of the peptides with the cell lines at 37 degrees C.

The next data set addresses T1, CDCA8delta8.
T1 chain: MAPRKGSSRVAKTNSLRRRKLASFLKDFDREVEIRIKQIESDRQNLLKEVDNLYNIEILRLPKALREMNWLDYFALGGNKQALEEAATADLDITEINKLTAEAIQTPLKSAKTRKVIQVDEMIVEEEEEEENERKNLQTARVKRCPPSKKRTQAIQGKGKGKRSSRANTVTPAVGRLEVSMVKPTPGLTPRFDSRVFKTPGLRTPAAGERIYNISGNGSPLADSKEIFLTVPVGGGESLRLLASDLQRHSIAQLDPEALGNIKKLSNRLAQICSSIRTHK

A further data set concerns the target T2, 11R-CDCA8261-280.
T2 chain: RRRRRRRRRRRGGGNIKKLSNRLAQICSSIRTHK

Another data set has as its target T3, CDCA8delta9.
T3 chain: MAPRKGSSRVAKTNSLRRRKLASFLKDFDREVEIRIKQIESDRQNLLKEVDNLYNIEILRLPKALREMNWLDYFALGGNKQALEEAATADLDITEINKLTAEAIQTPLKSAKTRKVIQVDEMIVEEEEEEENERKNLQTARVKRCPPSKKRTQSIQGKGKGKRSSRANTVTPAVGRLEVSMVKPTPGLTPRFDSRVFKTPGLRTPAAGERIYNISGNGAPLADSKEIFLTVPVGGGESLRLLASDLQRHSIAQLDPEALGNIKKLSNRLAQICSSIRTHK

The next data set addresses T4, CDCA8delta13.
T4 chain: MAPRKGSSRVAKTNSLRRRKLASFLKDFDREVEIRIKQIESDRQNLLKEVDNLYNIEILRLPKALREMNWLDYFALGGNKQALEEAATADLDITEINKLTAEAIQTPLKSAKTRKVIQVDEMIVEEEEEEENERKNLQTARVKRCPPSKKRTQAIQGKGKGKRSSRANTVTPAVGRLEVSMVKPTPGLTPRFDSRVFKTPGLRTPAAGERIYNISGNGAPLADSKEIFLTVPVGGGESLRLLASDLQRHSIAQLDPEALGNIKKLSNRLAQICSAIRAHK

The target of the next data set is T5, CDCA8delta11.
T5 chain: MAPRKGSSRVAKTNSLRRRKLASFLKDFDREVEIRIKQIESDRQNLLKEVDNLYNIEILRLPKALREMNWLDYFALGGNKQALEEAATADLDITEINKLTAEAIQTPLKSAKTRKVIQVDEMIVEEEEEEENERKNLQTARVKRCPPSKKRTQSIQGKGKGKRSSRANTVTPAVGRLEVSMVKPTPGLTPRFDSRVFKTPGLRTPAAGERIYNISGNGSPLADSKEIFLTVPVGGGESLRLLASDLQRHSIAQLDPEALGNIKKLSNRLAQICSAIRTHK

The target in data set [1] is T6, full-length recombinant CDCA8 protein (wild-type, N-terminal His tag).
T6 chain: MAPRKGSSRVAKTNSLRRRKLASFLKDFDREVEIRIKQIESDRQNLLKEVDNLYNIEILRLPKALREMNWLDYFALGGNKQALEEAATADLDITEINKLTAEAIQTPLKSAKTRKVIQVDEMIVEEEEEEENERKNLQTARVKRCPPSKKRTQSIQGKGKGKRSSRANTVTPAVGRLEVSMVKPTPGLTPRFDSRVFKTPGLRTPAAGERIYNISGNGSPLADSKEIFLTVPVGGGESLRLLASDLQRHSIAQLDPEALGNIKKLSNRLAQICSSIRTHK

In another data set the target is T7, CDCA8delta12.
T7 chain: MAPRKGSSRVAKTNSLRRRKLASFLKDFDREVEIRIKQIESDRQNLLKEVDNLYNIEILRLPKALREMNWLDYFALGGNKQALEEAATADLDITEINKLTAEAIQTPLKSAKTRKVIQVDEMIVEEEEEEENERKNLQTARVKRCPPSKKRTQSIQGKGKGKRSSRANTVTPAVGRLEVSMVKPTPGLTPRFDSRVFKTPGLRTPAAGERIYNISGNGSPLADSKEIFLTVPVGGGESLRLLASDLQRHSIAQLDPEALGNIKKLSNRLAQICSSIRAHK

`CC[C@H](C)[C@H](NC(=O)[C@H](CC(N)=O)NC(=O)CNC(=O)CNC(=O)CNC(=O)[C@H](CCCNC(=N)N)NC(=O)[C@H](CCCNC(=N)N)NC(=O)[C@H](CCCNC(=N)N)NC(=O)[C@H](CCCNC(=N)N)NC(=O)[C@H](CCCNC(=N)N)NC(=O)[C@H](CCCNC(=N)N)NC(=O)[C@H](CCCNC(=N)N)NC(=O)[C@H](CCCNC(=N)N)NC(=O)[C@H](CCCNC(=N)N)NC(=O)[C@H](CCCNC(=N)N)NC(=O)[C@@H](N)CCCNC(=N)N)C(=O)N[C@@H](CCCCN)C(=O)N[C@@H](CCCCN)C(=O)N[C@@H](CC(C)C)C(=O)N[C@@H](CO)C(=O)N[C@@H](CC(N)=O)C(=O)N[C@@H](CCCNC(=N)N)C(=O)N[C@@H](CC(C)C)C(=O)N[C@@H](C)C(=O)N[C@@H](CCC(N)=O)C(=O)N[C@H](C(=O)N[C@@H](CS)C(=O)N[C@@H](CO)C(=O)N[C@@H](CO)C(=O)N[C@H](C(=O)N[C@@H](CCCNC(=N)N)C(=O)N[C@H](C(=O)N[C@@H](Cc1c[nH]cn1)C(=O)N[C@@H](CCCCN)C(=O)O)[C@@H](C)O)[C@@H](C)CC)[C@@H](C)CC` [11R-CDCA8261-280] (H-RRRRRRRRRRRGGGNIKKLSNRLAQICSSIRTHK-OH): the “cell viability of normal cells” value with MRC5 cells is given as “no off-target effect”; in the data set on CCD19-Lu cells, “no effect”; in the data set on BEAS-2B cells, “no significant growth suppressive effect”.

B1: recombinant AURKB (Catalog No. 14-489; upstate) (protein)
chain: MAQKENSYPWPYGRQTAPSGLSTLPQRVLRKEPVTPSALVLMSRSNVQPTAAPGQKVMENSSGTPDILTRHFTIDDFEIGRPLGKGKFGNVYLAREKKSHFIVALKVLFKSQIEKEGVEHQLRREIEIQAHLHHPNILRLYNYFYDRRRIYLILEYAPRGELYKELQKSCTFDEQRTATIMEELADALMYCHGKKVIHRDIKPENLLLGLKGELKIADFGWSVHAPSLRRKTMCGTLDYLPPEMIEGRMHNEKVDLWCIGVLCYELLVGNPPFESASHNETYRRIVKVDLKFPASVPMGAQDLISKLLRHNPSERLPLAQVSAHPWVRANSRRVLPPSALQSVA
In the case of B1, the “phosphorylation level in in vitro kinase assay” value with CDCA8delta8 is “revealed the reduction of phosphorylation levels in four mutated-constructs”; with CDCA8delta1, “represented the same levels of phosphorylation compared to wild-type CDCA8”; in the data set with CDCA8delta5 it was “a reduction of phosphorylation levels was detected in three mutated constructs (CDCA8delta2, -delta5, and -delta6), as compared to a wild-type”; with CDCA8delta9, “revealed the reduction of phosphorylation levels in four mutated-constructs”; in the data set with CDCA8delta13, “complete disappearance of CDCA8 phosphorylation by AURKB”; with CDCA8delta11 it was “revealed the reduction of phosphorylation levels in four mutated-constructs”. For the same molecule, the “phosphorylation level in in vitro kinase assay” value was “represented the same levels of phosphorylation compared to wild-type CDCA8” in the data set with CDCA8delta3; “represented the same levels of phosphorylation compared to wild-type CDCA8” with CDCA8delta4; “showed the same levels of phosphorylation compared with wild-type” with CDCA8delta10; “a reduction of phosphorylation levels was detected in three mutated constructs (CDCA8delta2, -delta5, and -delta6), as compared to a wild-type” in the data set with CDCA8delta2; “a reduction of phosphorylation levels was detected in three mutated constructs (CDCA8delta2, -delta5, and -delta6), as compared to a wild-type” in the data set with CDCA8delta6; “showed the same levels of phosphorylation compared with wild-type” in the data set with CDCA8delta7. For the same molecule, in the data set with CDCA8delta12, the “phosphorylation level in in vitro kinase assay” value was “revealed the reduction of phosphorylation levels in four mutated-constructs”. For the same molecule, the “phosphorylation level of rhCDCA8 by rhAURKB in in vitro kinase assay” value with 11R-CDCA8261-280 is listed as “the phosphorylation level of rhCDCA8 was significantly suppressed by the treatment with 11R-CDCA8261-280 peptides ... compared to its scramble peptides”. Also, in data set [1], the “in vitro phosphorylation ([gamma-32P] ATP kinase assay)” value is “CDCA8 was phosphorylated in an AURKB-dose-dependent manner”.
